What was measured:
[1] = target: tunA (tunicate A, CBY12809.1), Oikopleura dioica S100 protein (Oikopleura dioica); assay: AUC; sedimentation velocity; ~50 uM protein; 25 mM TES, 100 mM NaCl, 1 mM TCEP, pH 7.4; interference optics; c(s) by SedFit; monomer to dimer
[2] = target: tunA (tunicate A, CBY12809.1), Oikopleura dioica S100 protein (Oikopleura dioica); assay: native MS; nanoESI time-of-flight MS; 10 or 100 mM ammonium acetate, pH 7.4; protein diluted from 10 uM to 0.01 uM; monomer to dimer
[3] = target: tunB (tunicate B, CBY30360.1), Oikopleura dioica S100 protein (Oikopleura dioica); assay: AUC; sedimentation velocity; ~50 uM protein; 25 mM TES, 100 mM NaCl, 1 mM TCEP, pH 7.4; interference optics; c(s) by SedFit; monomer to dimer
[4] = target: tunB (tunicate B, CBY30360.1), Oikopleura dioica S100 protein (Oikopleura dioica); assay: native MS; nanoESI time-of-flight MS; 10 or 100 mM ammonium acetate, pH 7.4; protein diluted from 10 uM to 0.01 uM; monomer to dimer

Substance | stoichiometry N [1] | stoichiometry N [2] | stoichiometry N [3] | stoichiometry N [4]
tunA (tunicate A, CBY12809.1), Oikopleura dioica S100 protein (natural protein) | 2 | 2 |  | 
tunB (tunicate B, CBY30360.1), Oikopleura dioica S100 protein (natural protein) |  |  | 2 | 2

From publication PMC5072561
